These results are taken from IntAct's records for PubMed 19141279.

B1: Ras-related protein Rab-6A (Homo sapiens), P20340-1 (parent)
chain: MSTGGDFGNPLRKFKLVFLGEQSVGKTSLITRFMYDSFDNTYQATIGIDFLSKTMYLEDRTVRLQLWDTAGQERFRSLIPSYIRDSTVAVVVYDITNVNSFQQTTKWIDDVRTERGSDVIIMLVGNKTDLADKRQVSIEEGERKAKELNVMFIETSAKAGYNVKQLFRRVAAALPGMESTQDRSREDMIDIKLEKPQEQPVSEGGCSC
partner: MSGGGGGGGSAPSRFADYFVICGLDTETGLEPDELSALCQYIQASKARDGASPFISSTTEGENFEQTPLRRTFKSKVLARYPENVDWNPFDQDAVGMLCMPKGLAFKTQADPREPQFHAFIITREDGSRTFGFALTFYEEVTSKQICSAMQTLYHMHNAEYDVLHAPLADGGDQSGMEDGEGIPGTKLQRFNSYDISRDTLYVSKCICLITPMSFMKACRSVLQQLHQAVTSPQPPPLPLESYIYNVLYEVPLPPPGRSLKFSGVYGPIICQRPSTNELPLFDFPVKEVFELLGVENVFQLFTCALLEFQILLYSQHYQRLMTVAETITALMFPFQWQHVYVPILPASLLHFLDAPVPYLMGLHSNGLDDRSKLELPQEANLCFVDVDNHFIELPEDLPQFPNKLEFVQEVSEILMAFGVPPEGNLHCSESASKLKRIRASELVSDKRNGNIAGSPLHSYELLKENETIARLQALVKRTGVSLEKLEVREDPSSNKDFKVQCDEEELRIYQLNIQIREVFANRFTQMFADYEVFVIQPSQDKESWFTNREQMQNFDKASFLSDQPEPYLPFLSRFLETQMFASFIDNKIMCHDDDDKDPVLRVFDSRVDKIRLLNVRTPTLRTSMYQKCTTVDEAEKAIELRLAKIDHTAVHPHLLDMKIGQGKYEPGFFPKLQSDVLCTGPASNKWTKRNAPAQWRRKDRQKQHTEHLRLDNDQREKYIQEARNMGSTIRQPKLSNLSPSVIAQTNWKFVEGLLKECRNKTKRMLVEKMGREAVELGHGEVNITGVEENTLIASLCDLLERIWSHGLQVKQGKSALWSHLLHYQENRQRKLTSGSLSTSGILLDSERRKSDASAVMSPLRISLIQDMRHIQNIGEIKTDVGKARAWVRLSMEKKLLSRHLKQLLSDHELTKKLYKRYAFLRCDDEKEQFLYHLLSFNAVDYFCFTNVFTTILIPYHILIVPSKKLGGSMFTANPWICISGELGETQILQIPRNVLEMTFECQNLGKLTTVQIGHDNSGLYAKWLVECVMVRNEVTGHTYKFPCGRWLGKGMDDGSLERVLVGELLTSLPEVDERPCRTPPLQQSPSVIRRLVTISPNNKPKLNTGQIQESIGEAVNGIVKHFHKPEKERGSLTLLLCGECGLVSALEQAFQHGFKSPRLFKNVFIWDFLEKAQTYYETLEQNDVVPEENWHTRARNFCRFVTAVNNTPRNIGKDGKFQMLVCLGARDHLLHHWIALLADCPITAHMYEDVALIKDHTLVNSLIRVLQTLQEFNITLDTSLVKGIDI

The test covers variants of B1. The following applies: with den5a_mouse Dennd5a.
For I46E, the “effect of a mutation on the interaction” value is “disrupting interaction”.
